Usually stoichiometry N stands for a count of units in the complex or per binding partner.

Consider 2 proteins from PMC5940873, “NADH/NADPH bi-cofactor-utilizing and thermoactive ketol-acid reductoisomerase from Sulfolobus acidocaldarius” (Scientific Reports, 2018).

Data set [1] deals with the molecule itself. The experiment in a line: SEC; gel filtration on HiLoad 16/600 Superdex 200 pg, in the presence of 2 mM Mg2+.
Data set [2] deals with the molecule itself. Put plainly: crystal structure; X-ray, 1.75 Å, space group P212121, one dimer in the asymmetric unit; SeMet crystals from 0.2 M Li2SO4 and 20% PEG 3350, 25 °C.

B1: Ketol-acid reductoisomerase from Sulfolobus acidocaldarius (Sac-KARI), His-tagged recombinant (enzyme)
chain: MAKIYTDKDVSLDVIKEKRVAVLGYGSQGRAWALNLRDSGIKVSVGLEREGNSWKQAENDGFKPLRTEEAVRNSDIIIFLLPDMIQRTVYLERVKPYLKEGMDLVFAHGFNIHYRLIEPPSNVDVYMIAPKAPGPIVREYFAKGGGVPALVATYQDHSGKALQKALAVAKAIGATRAGVIETTFKEETETDLFGEQVDLVGGVMQLMRYAFQTLVEAGYQPEVAYFETINEMKLIVDLVYEKGFSGMLTAVSDTAKYGGMTVGKMVIDESVKERMKKALDNIRSGKFAEKWVEEYGKGANTIKEGMKEVDNSTEEKVGRSLRDIILRGKPKS
notes: pET-21a cloned through NdeI/XhoI with the His-tag coding region kept would give a C-terminal His6 tag (surmised); No tag cleavage is described; also called ilvc1559; source: E. coli BL21 (DE3), purified (heating at 65 °C for 30 min, Ni-NTA, gel filtration)
With B1, the “stoichiometry N” value in data set [1] was found to be 2.

B2: SeMet-substituted Sac-KARI (ketol-acid reductoisomerase from Sulfolobus acidocaldarius) (enzyme)
chain: B1 chain
modifications: selenomethionine in place of methionine (SeMet-substituted)
notes: Ketol-acid reductoisomerase (class I KARI) of Sulfolobus acidocaldarius, gene ilvc1559, same pET21a-ilvc construct as m1, expressed with selenomethionine; also called SeMet-containing Sac-KARI; source: Overnight Express Autoinduction System 2 (Novagen) with L-methionine and SeMet; purified as the native protein (heating, Ni-NTA, gel filtration)
For B2, in data set [2], the binding result is “binds”.
